The data set deals with the molecule itself. The experiment in a line: SEC; Superdex S200 10/300 Increase, 20 mM Tris-HCl pH 8, 300 mM NaCl; affinity-purified (His)6 protein; peak fractions checked by 12.5 % SDS-PAGE.

The values below come from publication PMC4850634, “Characterization of an A-kinase anchoring protein-like suggests an alternative way of PKA anchoring in Plasmodium falciparum” (Malaria Journal, 2016).

One may read the stoichiometry N as the number of molecules, sites or subunits per partner or assembly.

B1: (His)6-Pf14-3-3I (natural protein, Plasmodium falciparum, UniProt C0H4V6 1-262, looked up)
chain: MATSEELKQLRCDCTYRSKLAEQAERYDEMADAMRTLVEQCVNNDKDELTVEERNLLSVAYKNAVGARRASWRIISSVEQKEMSKANVHNKNVAATYRKKVEEELNNICQDILNLLTKKLIPNTSESESKVFYYKMKGDYYRYISEFSCDEGKKEASNCAQEAYQKATDIAENELPSTHPIRLGLALNYSVFFYEILNQPHQACEMAKRAFDDAITEFDNVSEDSYKDSTLIMQLLRDNLTLWTSDLQGDQTEEKSKDEGLE
notes: 14-3-3I protein, Plasmodium falciparum, PlasmoDB MAL8P1.69/PF3D7_0818200; amplified from a P. falciparum cDNA library with primers from the start to the stop codon, cloned into pRSFDuet; recombinant protein 30 kDa; source: E. coli BL21 Codon Plus, purified (Ni-NTA-agarose)
Take B1: the “stoichiometry N” value amounted to 2.
